Target: SARS-CoV-2 RBD-Fc fusion protein (SARS-CoV-2, UniProt P0DTC2)
Test: ELISA
Conditions: both partners purified

B1: nCoVmab1 (antibody, V domains shown)
VH: QVQLVESGGGLVQPGGSLRLSCAASGFTVSSNYMSWVRQAPGKGLEWVSVIYSGGSTYYADSVKGRFTISRDNSKNTLYLQMNSLRAEDTAVYYCARGDGSDDYYYGMDVWGQGTTVTVSS
VL: QSVVTQPPSVSGAQGQRVFISCTGNGANIGMGYDVHWYQQLPGRAPKLLIFGNTNRPSGVPDRFSASRSGTSASLAITGLQTADEADYYCQSYDGNLRASVFGGGTKLTVL
notes: also called nCoVFab1 in IgG1 format; source: 293F cells, purified (Protein A resin)
  fold change in EC50 compared to wild type: 1 fold

B2: nCoVmab2 (antibody, V domains shown)
VH: EVQLVQSGGGVVQPGRSLRLSCAASGFTVSSNYMSWVRQAPGKGLEWVSVIYSGGSTYYADSVKGRFTISRDNSKNTLYLQMNSLRAEDTAVYYCARGDGSDDYYYGMDVWGQGTTVTVSS
VL: QAVLTQPSSVSGAPGQRVTISCTGSSSNVGAGYDVHWYQQLPGTAPKLLIYGNSNRPSGVPDRFSGSKSGTSASLAITGLQAEDEADYYCQSYDSSLSGSVFGGGTKLTVL
notes: also called nCoVFab2 in IgG1 format; source: 293F cells, purified (Protein A resin)
  fold change in EC50 compared to wild type: 1 fold
